Experimental data reported in article doi:10.1101/2021.11.24.469940 (bioRxiv, 2021).

Target: the molecule itself
Test: cryo-EM structure

B1: mature wild-type S. cerevisiae PIM1 lacking the mitochondrial targeting sequence (Met182 – Asp1133) (enzyme, UniProt P36775 182-1133, looked up)
chain: MLALPIARRPLFPGFYKAVVISDERVMKAIKEMLDRQQPYIGAFMLKNSEEDTDVITDKNDVYDVGVLAQITSAFPSKDEKTGTETMTALLYPHRRIKIDELFPPNEEKEKSKEQAKDTDTETTVVEDANNPEDQESTSPATPKLEDIVVERIPDSELQHHKRVEATEEESEELDDIQEGEDINPTEFLKNYNVSLVNVLNLEDEPFDRKSPVINALTSEILKVFKEISQLNTMFREQIATFSASIQSATTNIFEEPARLADFAAAVSAGEEDELQDILSSLNIEHRLEKSLLVLKKELMNAELQNKISKDVETKIQKRQREYYLMEQLKGIKRELGIDDGRDKLIDTYKERIKSLKLPDSVQKIFDDEITKLSTLETSMSEFGVIRNYLDWLTSIPWGKHSKEQYSIPRAKKILDEDHYGMVDVKDRILEFIAVGKLLGKVDGKIICFVGPPGVGKTSIGKSIARALNRKFFRFSVGGMTDVAEIKGHRRTYIGALPGRVVQALKKCQTQNPLILIDEIDKIGHGGIHGDPSAALLEVLDPEQNNSFLDNYLDIPIDLSKVLFVCTANSLETIPRPLLDRMEVIELTGYVAEDKVKIAEQYLVPSAKKSAGLENSHVDMTEDAITALMKYYCRESGVRNLKKHIEKIYRKAALQVVKKLSIEDSPTSSADSKPKESVSSEEKAENNAKSSSEKTKDNNSEKTSDDIEALKTSEKINVSISQKNLKDYVGPPVYTTDRLYETTPPGVVMGLAWTNMGGCSLYVESVLEQPLHNCKHPTFERTGQLGDVMKESSRLAYSFAKMYLAQKFPENRFFEKASIHLHCPEGATPKDGPSAGVTMATSFLSLALNKSIDPTVAMTGELTLTGKVLRIGGLREKAVAAKRSGAKTIIFPKDNLNDWEELPDNVKEGLEPLAADWYNDIFQKLFKDVNTKEGNSVWKAEFEILDAKKEKD
stoichiometry N: 6
